Measurements reported in patent publication US20090011979A1 (VIRON THERAPEUTICS, published 2009).

Assays:
human IL-18 [1] = molecular target: T1, human IL-18 (human, UniProt Q14116 37-193); assay: immunoprecipitation (row 'Human IL-18 immunoprecipitation')
T1 construct: also called hIL-18
T1 sequence: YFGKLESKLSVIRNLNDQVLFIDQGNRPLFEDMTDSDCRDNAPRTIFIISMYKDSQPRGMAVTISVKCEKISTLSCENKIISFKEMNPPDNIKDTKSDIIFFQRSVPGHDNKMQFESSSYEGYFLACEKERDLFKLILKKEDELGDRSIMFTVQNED

mouse IL-18 = molecular target: T2, mouse IL-18 (mouse, UniProt P70380 36-192); assay: Biacore (row 'Human/mouse IL-18 Biacore')
T2 construct: also called murine IL-18
T2 sequence: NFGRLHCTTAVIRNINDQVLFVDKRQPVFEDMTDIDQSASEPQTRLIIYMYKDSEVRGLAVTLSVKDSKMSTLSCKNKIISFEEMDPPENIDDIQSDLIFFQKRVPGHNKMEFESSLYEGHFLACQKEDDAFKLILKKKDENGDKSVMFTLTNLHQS

human IL-18 [2] = molecular target: T1, human IL-18; assay: Biacore (row 'Human/mouse IL-18 Biacore')

B1: tagged YCI (YMTV IL-18 bp with a C-terminal myc/his tag) (other)
chain: EKECDKHRSVNIQVPMKETSEVLLRCTGSSYFKHFSYVYWLVGESETVDQLQQNSGYGETSHPSKPHECGNLPSADLVLTNMTEKMRDTKLTCVLMDPDGHIDESLVLREVWDCFNKT
notes: also called 6xHis-tagged YCI; his-tagged version of the YCI
binding result (human IL-18 [1]): binds | binding result (mouse IL-18): binds

B2: untagged YCI (YMTV IL-18 bp, YMTV Cytokine Inhibitor, without tag) (other)
chain: EKECDKHRSVNIQVPMKETSEVLLRCTGSSYFKHFSYVYWLVGESETVDQLQQNSGYGETSHPSKPHECGNLPSADLVLTNMTEKMRDTKLTCVLMDPDGHIDESLVLREVWDCFNKT
notes: also called IL-18 bp from YMTV; purified untagged YCI protein
binding result (human IL-18 [2]): binds | binding result (mouse IL-18): binds
